Test system: C[C@@H]1O[C@@H]1P(=O)(O)O
Test: HPLC, initial rates, Michaelis-Menten fit
Format: biochemical, Morganella morganii
Conditions: 10 mM GSH, 250 µM MnCl2, 100 mM KCl, 100 mM Tris-HCl, 37 °C, fosfomycin 0-800 µM, printed unit µM conflicts with printed kcat/Km (1.50 × 10^4 M^-1 s^-1), which implies mM

With “FosA13 (Morganella morganii subsp. morganii KT)” the kcat was 6.43 ± 0.04 s⁻¹.

From article PMC11933065, “Characterization of FosA13, a novel fosfomycin glutathione transferase identified in a Morganella morganii isolate from poultry” (Frontiers in Cellular and Infection Microbiology, 2025)
